Test results as given in PMC2928751 (2010).

B1: Gli3(280-478), wild type [modified: [35S]-methionine labelled; [35S]-methionine labelled] [human] / GST-JNK1 [human] (parent complex)
chain 1: SSPRLSARPSRKRTLSISPLSDHSFDLQTMIRTSPNSLVTILNNSRSSSSASGSYGHLSASAISPALSFTYSSAPVSLHMHQQILSRQQSLGSAFGHSPPLIHPAPTFPTQRPIPGIPTVLNPVQVSSGPSESSQNKPTSESAVSSTGDPMHNKRSKIKPDEDLPSPGARGQQEQPEGTTLVKEEGDKDESKQEPEVIY
chain 2: MSRSKRDNNFYSVEIGDSTFTVLKRYQNLKPIGSGAQGIVCAAYDAILERNVAIKKLSRPFQNQTHAKRAYRELVLMKCVNHKNIIGLLNVFTPQKSLEEFQDVYIVMELMDANLCQVIQMELDHERMSYLLYQMLCGIKHLHSAGIIHRDLKPSNIVVKSDCTLKILDFGLARTAGTSFMMTPYVVTRYYRAPEVILGMGYKENVDLWSVGCIMGEMVCHKILFPGRDYIDQWNKVIEQLGTPCPEFMKKLQPTVRTYVENRPKYAGYSFEKLFPDVLFPADSEHNKLKASQARDLLSKMLVIDASKRISVDEALQHPYINVWYDPSEAEAPPPKIPDKQLDEREHTIEEWKELIYKEVMDLEERTKNGVIRGQPSPLAQVQQ
B2: Gli3(280-478), wild type [modified: [35S]-methionine labelled; [35S]-methionine labelled] [human] / GST-JNK3 [human] (parent complex)
chain 1: B1 chain 1
chain 2: MSLHFLYYCSEPTLDVKIAFCQGFDKQVDVSYIAKHYNMSKSKVDNQFYSVEVGDSTFTVLKRYQNLKPIGSGAQGIVCAAYDAVLDRNVAIKKLSRPFQNQTHAKRAYRELVLMKCVNHKNIISLLNVFTPQKTLEEFQDVYLVMELMDANLCQVIQMELDHERMSYLLYQMLCGIKHLHSAGIIHRDLKPSNIVVKSDCTLKILDFGLARTAGTSFMMTPYVVTRYYRAPEVILGMGYKENVDIWSVGCIMGEMVRHKILFPGRDYIDQWNKVIEQLGTPCPEFMKKLQPTVRNYVENRPKYAGLTFPKLFPDSLFPADSEHNKLKASQARDLLSKMLVIDPAKRISVDDALQHPYINVWYDPAEVEAPPPQIYDKQLDEREHTIEEWKELIYKEVMNSEEKTKNGVVKGQPSPSAQVQQ

Variants of: B1
Test: GST pull-down of in vitro translated protein, quantified; 30 µg GST-JNK1; read off a plot

With chain 1 R11A, chain 1 K12A, chain 1 R13A, chain 1 L15A, chain 1 I17A as the variant, how does the response read?
The response was ~0.2 % of input (axis unlabelled; 5% input bar = 5).

Variants of: B2
Test: GST pull-down of in vitro translated protein, quantified; 20 µg GST-JNK3; read off a plot

For chain 1 R11A, chain 1 K12A, chain 1 R13A, chain 1 L15A, chain 1 I17A, which response is on record?
The response was ~0.35 % of input (axis unlabelled; 5% input bar = 5).
